From patent US20080267908A1 (YEDA RESEARCH AND DEVELOPMENT, published 2008) come the findings set out here.

In data set [1] the target is T1, 125I-IL-32 (radio-iodinated IL-32).
T1 chain: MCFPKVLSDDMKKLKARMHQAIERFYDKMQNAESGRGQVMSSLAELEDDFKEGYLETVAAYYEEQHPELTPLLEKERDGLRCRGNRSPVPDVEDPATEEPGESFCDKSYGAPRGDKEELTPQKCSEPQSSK

The target in data set [2] is T2, commercially available human PR-3 (Athens Research and Technology) inactivated by PMSF (human, UniProt P24158 28-248, inactivated by PMSF; the modified residue is not stated).
T2 construct: mature; Same product as the commercial PR-3, treated with PMSF before the assay; also called PMSF pretreated commercial PR-3
T2 sequence (looked up): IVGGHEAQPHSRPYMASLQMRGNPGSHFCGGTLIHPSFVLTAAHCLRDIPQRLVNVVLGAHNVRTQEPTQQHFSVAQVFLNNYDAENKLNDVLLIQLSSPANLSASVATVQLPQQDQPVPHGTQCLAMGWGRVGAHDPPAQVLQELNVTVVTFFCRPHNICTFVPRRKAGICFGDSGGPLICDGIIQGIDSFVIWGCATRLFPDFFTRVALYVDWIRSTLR
Briefly: SPR (BIAcore), IL-32 immobilized; commercial PR-3 inactivated by PMSF (FIG. 3B). The protocol: (§1) FIG. 2 A. IL-32 (20 μg/ml) in acetate buffer pH 4.6) was immobilized to a single channel of a BIAcore chip as recommended by the manufacturer (Amersham Pharmacia, Uppsala Sweden). […] The resulting kD was 7.9×10⁻⁸ M.
(§2) For details see FIG. 2. The binding data gave a kD of 1.2×10⁻⁸ M with active PR-3, which considerably degraded the immobilized IL-32 (FIG. 3 A). The kD of commercially available PR-3 that was inactivated by PMSF (FIG. 3 B) was 3.5×10⁻⁸ M.
(§3) IL-32 (20 μg/ml) in acetate buffer pH 4.6) was immobilized to a single channel of a BIAcore chip as recommended by the manufacturer (Amersham Pharmacia, Uppsala Sweden). […] The same analysis was done with PR-3 that was inactivated by PMSF (1 mM) (FIG. 2B). The resulting kD was 7.9×10⁻⁸ M. The same analysis was done with a commercially available human neutrophil derived PR-3 (Athens Research and Technology, Athens Ga., 0.5 μg in 20 μl gelatin solution) (FIG. 3A). The resulting kD was 1.2×10⁻⁸ M. The binding was repeated with commercial PR-3 that was inactivated by PMSF (FIG. 3B). The resulting kD was 3.5×10⁻⁸ M.

In data set [3] the target is T3, human urinary Proteinase-3 (PR-3), affinity purified (elution fraction 3 of the IL-32 column), active (human, UniProt P24158 28-248).
T3 construct: mature; also called urinary PR-3; urinary PR3
T3 sequence (looked up): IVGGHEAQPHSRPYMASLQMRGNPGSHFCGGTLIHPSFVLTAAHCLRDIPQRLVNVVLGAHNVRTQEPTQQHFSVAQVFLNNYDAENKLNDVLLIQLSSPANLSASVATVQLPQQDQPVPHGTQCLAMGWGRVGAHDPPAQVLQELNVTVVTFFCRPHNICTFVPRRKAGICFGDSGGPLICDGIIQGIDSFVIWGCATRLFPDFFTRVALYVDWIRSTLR
As to the kind of experiment: SPR (BIAcore), IL-32 immobilized, PR-3 at 10-80 nM; urinary PR3, active (FIG. 2A). As for the experimental part: as §1, §3

Data set [4] concerns the target T4, human urinary PR-3 inactivated by phenyl methyl sulfonyl fluoride (PMSF) (human, UniProt P24158 28-248, inactivated by PMSF (1 mM); the modified residue is not stated).
T4 construct: mature; Same preparation as the urinary PR-3, treated with PMSF before the assay; also called PMSF pretreated urinary PR-3
T4 sequence (looked up): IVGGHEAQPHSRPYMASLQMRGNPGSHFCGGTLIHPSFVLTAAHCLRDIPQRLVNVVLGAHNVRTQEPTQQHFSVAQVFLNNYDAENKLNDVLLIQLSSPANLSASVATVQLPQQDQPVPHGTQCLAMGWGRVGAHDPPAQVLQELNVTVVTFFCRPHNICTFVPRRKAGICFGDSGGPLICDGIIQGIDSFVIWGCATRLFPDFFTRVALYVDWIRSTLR
Briefly: SPR (BIAcore), IL-32 immobilized; urinary PR-3 inactivated by PMSF (1 mM) (FIG. 2B). The protocol:
as §1, §3

In data set [5] the target is T5, commercially available human neutrophil derived PR-3 (Athens Research and Technology), active (human, UniProt P24158 28-248).
T5 construct: mature; Bought; purified from human neutrophils; also called commercial PR-3; commercially available PR-3
T5 sequence (looked up): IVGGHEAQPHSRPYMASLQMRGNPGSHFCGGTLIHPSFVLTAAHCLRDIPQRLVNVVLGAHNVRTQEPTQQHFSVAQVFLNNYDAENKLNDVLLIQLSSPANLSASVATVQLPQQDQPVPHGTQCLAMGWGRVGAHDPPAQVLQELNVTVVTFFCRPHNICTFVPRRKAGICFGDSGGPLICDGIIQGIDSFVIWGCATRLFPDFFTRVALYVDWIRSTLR
As to the kind of experiment: SPR (BIAcore), IL-32 immobilized; commercial neutrophil-derived PR-3, active (FIG. 3A). As for the experimental part:
as §1, §2, §3

B1: human urinary Proteinase-3 (PR-3), affinity purified (elution fraction 3 of the IL-32 column), active (protein)
chain: IVGGHEAQPHSRPYMASLQMRGNPGSHFCGGTLIHPSFVLTAAHCLRDIPQRLVNVVLGAHNVRTQEPTQQHFSVAQVFLNNYDAENKLNDVLLIQLSSPANLSASVATVQLPQQDQPVPHGTQCLAMGWGRVGAHDPPAQVLQELNVTVVTFFCRPHNICTFVPRRKAGICFGDSGGPLICDGIIQGIDSFVIWGCATRLFPDFFTRVALYVDWIRSTLR
As to B1, the “cleavage of 125I-IL-32 (SDS-PAGE, autoradiography)” value (“cleavage” below) in data set [1] is “the 20 kDa band completely disappeared and the levels of the 16 and 13 kDa IL-32 cleavage products increased after a 5 min. incubation with PR-3”.

B2: commercially available human PR-3 (Athens Research and Technology) inactivated by PMSF (protein)
chain: IVGGHEAQPHSRPYMASLQMRGNPGSHFCGGTLIHPSFVLTAAHCLRDIPQRLVNVVLGAHNVRTQEPTQQHFSVAQVFLNNYDAENKLNDVLLIQLSSPANLSASVATVQLPQQDQPVPHGTQCLAMGWGRVGAHDPPAQVLQELNVTVVTFFCRPHNICTFVPRRKAGICFGDSGGPLICDGIIQGIDSFVIWGCATRLFPDFFTRVALYVDWIRSTLR
Turning to B2, the “cleavage” value in data set [1] is recorded as “no cleavage products were observed with PMSF pretreated PR-3 incubated with IL-32”.

B3: commercially available human neutrophil derived PR-3 (Athens Research and Technology), active (protein)
chain: IVGGHEAQPHSRPYMASLQMRGNPGSHFCGGTLIHPSFVLTAAHCLRDIPQRLVNVVLGAHNVRTQEPTQQHFSVAQVFLNNYDAENKLNDVLLIQLSSPANLSASVATVQLPQQDQPVPHGTQCLAMGWGRVGAHDPPAQVLQELNVTVVTFFCRPHNICTFVPRRKAGICFGDSGGPLICDGIIQGIDSFVIWGCATRLFPDFFTRVALYVDWIRSTLR
Consider B3, for which the “cleavage” value in data set [1] was “the commercial PR-3 is more potent than the urinary PR-3, leading to complete disappearance of the 20 kDa IL-32 band within 1 min”.

B4: human urinary PR-3 inactivated by phenyl methyl sulfonyl fluoride (PMSF) (protein)
chain: IVGGHEAQPHSRPYMASLQMRGNPGSHFCGGTLIHPSFVLTAAHCLRDIPQRLVNVVLGAHNVRTQEPTQQHFSVAQVFLNNYDAENKLNDVLLIQLSSPANLSASVATVQLPQQDQPVPHGTQCLAMGWGRVGAHDPPAQVLQELNVTVVTFFCRPHNICTFVPRRKAGICFGDSGGPLICDGIIQGIDSFVIWGCATRLFPDFFTRVALYVDWIRSTLR
In the case of B4, the “cleavage” value in data set [1] was “no cleavage products were observed with PMSF pretreated PR-3 incubated with IL-32”.

B5: recombinant human IL-32α produced in E. coli (ligand)
chain: MCFPKVLSDDMKKLKARMHQAIERFYDKMQNAESGRGQVMSSLAELEDDFKEGYLETVAAYYEEQHPELTPLLEKERDGLRCRGNRSPVPDVEDPATEEPGESFCDKSYGAPRGDKEELTPQKCSEPQSSK
notes: also called hrIL-32; human recombinant IL-32
Take B5: the Kd in data set [2] is 35 nM; in data set [3], 26.5 nM; in data set [4], 79 nM; in data set [5], 12 nM.
